Where only a bound is given, the exact number is not on record here.

The target of assay [1] is human CD3 antigen on T cells (human). Description: flow cytometry competition on human T cells, FITC-conjugated murine OKT3 as tracer.
Assay [2] shares this target. Description: competition with 125I-labelled mouse M291 on IL-2-activated human T cells, method of Berzofsky and Berkower.

In turn, “chimeric OKT3 IgG2 (from UniProt P01859-1) (antibody)” gave a specific lysis of 51Cr-labeled K562 cells by retargeted T cell blasts (reverse lysis) with FcRII of under 32%. This molecule returned an avidity, fold compared to that of the chimeric IgG1 in assay [1] of 2 to 3 fold.

Molecule “humanized M291 IgG1 (from UniProt P01857-1) (antibody)” returned a Ka in assay [2] of 1.6e+09 M⁻¹.

B1: mouse M291 antibody (antibody, V domains shown)
VH: QVQLQQSGAELARPGASVKMSCKASGYTFISYTMHWVKQRPGQGLEWIGYINPRSGYTHYNQKLKDKATLTADKSSSSAYMQLSSLTSEDSAVYYCARSAYYDYDGFAYWGQGTLVTVSA
VL: QIVLTQSPAIMSASPGEKVTMTCSASSSVSYMNWYKQKSGTSPKRWTYDTSKLASGVPARFSGSGSGTSYSLTISSMEAEDAATYYCQQWSSNPPTFGSGTKLEIK
In assay [2], B1 gave a Ka of 1.6e+09 M⁻¹.
